Measurements: US20090092631A1 (TRIPEP, published 2009)
Values joined by “and” are separate entries in the source; they are usually repeats but may differ in a detail not shown here. Equal entries are not always repeated. Ends that are not written are not given here. * marks the point of attachment. Galα1‑3Galβ1‑O(CH2)3NH2 = OC[C@H]1O[C@H](O[C@H]2[C@@H](O)[C@@H](CO)O[C@@H](OCCCN*)[C@@H]2O)[C@H](O)[C@@H](O)[C@H]1O

Legend:
[1] = target: T1, gp120 of HIV-1 IIIB virus (HIV-1 IIIB, UniProt P04578 33-856); assay: cell-based or functional assay
[2] = target: T1, gp120 of HIV-1 IIIB virus; assay: cell-based or functional assay; remark: listed apart in the source
[3] = target: T2, LAI gp120 molecule (PerkinElmer, Denmark) (HIV-1 LAI, UniProt P03377 33-516); assay: ELISA on coated LAI gp120, detection with 1:10 or 1:20 human serum
T2 construct: domain: gp120; also called gp120 from LAI virus

Row | Binder | neutralization (inhibition of syncytia formation, U87 CD4+ CXCR4+ cells), peptide without serum [1] | percentage of neutralization of the virus (plaque assay, U87 CD4 cells, HIV-1 IIIB); CD4 peptide alone 0.1 ug/ml [2] | percentage of neutralization of the virus (plaque assay, U87 CD4 cells, HIV-1 IIIB); CD4 peptide alone 1 ug/ml [2] | percentage of neutralization of the virus (plaque assay, U87 CD4 cells, HIV-1 IIIB); CD4 peptide alone 10 ug/ml [2] | lowest glycopeptide concentration at which binding was detected [3] | percentage of neutralization of the virus (plaque assay, U87 CD4 cells, HIV-1 IIIB); glycosylated Sp. exchanger 0.1 ug/ml & 1:10 dilution human serum [2] | percentage of neutralization of the virus (plaque assay, U87 CD4 cells, HIV-1 IIIB); glycosylated Sp. exchanger 0.1 ug/ml & 1:20 dilution human serum [2] | percentage of neutralization of the virus (plaque assay, U87 CD4 cells, HIV-1 IIIB); glycosylated Sp. exchanger 0.1 ug/ml, no serum [2] | percentage of neutralization of the virus (plaque assay, U87 CD4 cells, HIV-1 IIIB); glycosylated Sp. exchanger 1 ug/ml & 1:10 dilution human serum [2] | percentage of neutralization of the virus (plaque assay, U87 CD4 cells, HIV-1 IIIB); glycosylated Sp. exchanger 1 ug/ml & 1:20 dilution human serum [2] | percentage of neutralization of the virus (plaque assay, U87 CD4 cells, HIV-1 IIIB); glycosylated Sp. exchanger 1 ug/ml, no serum [2] | percentage of neutralization of the virus (plaque assay, U87 CD4 cells, HIV-1 IIIB); glycosylated Sp. exchanger 10 ug/ml & 1:10 dilution human serum [2] | percentage of neutralization of the virus (plaque assay, U87 CD4 cells, HIV-1 IIIB); glycosylated Sp. exchanger 10 ug/ml & 1:20 dilution human serum [2] | percentage of neutralization of the virus (plaque assay, U87 CD4 cells, HIV-1 IIIB); glycosylated Sp. exchanger 10 ug/ml, no serum [2] | decrease in the infectivity (RT activity day 11, H9 cells, HIV IIIB) at 0.01 µg/ml glycopeptide (approximately 5 nM) with 5 or 10% human serum [1] | neutralization (RT activity day 11, H9 cells, HIV IIIB) at 1 µg/ml glycopeptide with 5 or 10% human serum [1]
1 | KILGNQGSFLTKGPS [CD4 peptide alone, Seq. Id. No. 6 (non-glycosylated)] | < 40% | < 0.3 fraction (0.3 equals 30%) | < 0.3 fraction (0.3 equals 30%) | < 0.3 fraction (0.3 equals 30%) | – | – | – | – | – | – | – | – | – | – | – | –
2 | DNSNQIKILGNQGSFL (not fully specified (residue 1), also called GP2; glycopeptide 2) [Gal-CD4-101] | < 40% | – | – | – | ~5 nM and 10 ng/ml | < 0.3 fraction (0.3 equals 30%) | < 0.3 fraction (0.3 equals 30%) | < 0.3 fraction (0.3 equals 30%) | 0.39 fraction (0.3 equals 30%) | 0.32 fraction (0.3 equals 30%) | < 0.3 fraction (0.3 equals 30%) | 0.49 fraction (0.3 equals 30%) | 0.429 fraction (0.3 equals 30%) | < 0.3 fraction (0.3 equals 30%) | – | –
3 | KLNDRADSRRSLWDQ [non-glycosylated CD4 peptide, Seq. Id. No. 9] | < 40% | – | – | – | – | – | – | – | – | – | – | – | – | – | – | –
4 | QGSFLTKGPSKLNDR [CD4 peptide alone, Seq. Id. No. 7 (non-glycosylated)] | < 40% | < 0.3 fraction (0.3 equals 30%) | < 0.3 fraction (0.3 equals 30%) | < 0.3 fraction (0.3 equals 30%) | – | – | – | – | – | – | – | – | – | – | – | –
5 | D(Galα1‑3Galβ1‑O(CH2)3NH2)QFHWKNSNQIKILGN (also called GP1; glycopeptide 1) [Gal-CD4-100] | < 40% | – | – | – | ~5 nM and 10 ng/ml | 0.48 fraction (0.3 equals 30%) | 0.47 fraction (0.3 equals 30%) | < 0.3 fraction (0.3 equals 30%) | 0.48 fraction (0.3 equals 30%) | 0.47 fraction (0.3 equals 30%) | < 0.3 fraction (0.3 equals 30%) | 0.55 fraction (0.3 equals 30%) | 0.48 fraction (0.3 equals 30%) | < 0.3 fraction (0.3 equals 30%) | – | –
6 | DKLNDRADSRRSLWDQ (not fully specified (residue 1), also called GP6; glycopeptide 6) [Gal-CD4-105] | < 40% | – | – | – | 10 ng/ml and ~5 nM | 0.76 fraction (0.3 equals 30%) | 0.71 fraction (0.3 equals 30%) | < 0.3 fraction (0.3 equals 30%) | 0.75 fraction (0.3 equals 30%) | 0.75 fraction (0.3 equals 30%) | < 0.3 fraction (0.3 equals 30%) | 0.78 fraction (0.3 equals 30%) | 0.74 fraction (0.3 equals 30%) | < 0.3 fraction (0.3 equals 30%) | – | –
7 | TKGPSKLNDRADSRR [non-glycosylated CD4 peptide, Seq. Id. No. 8] | < 40% | – | – | – | – | – | – | – | – | – | – | – | – | – | – | –
8 | DTKGPSKLNDRADSRR (not fully specified (residue 1), also called glycopeptide 5) [Gal-CD4-104] | < 40% | – | – | – | 10 ng/ml and ~5 nM | 0.778 fraction (0.3 equals 30%) | 0.701 fraction (0.3 equals 30%) | – | 0.821 fraction (0.3 equals 30%) | 0.667 fraction (0.3 equals 30%) | 0.548 fraction (0.3 equals 30%) | 0.83 fraction (0.3 equals 30%) | 0.642 fraction (0.3 equals 30%) | 0.552 fraction (0.3 equals 30%) | > 50% | 90%
9 | D(Galα1‑3Galβ1‑O(CH2)3NH2)QGSFLTKGPSKLNDR (also called GP4; glycopeptide 4) [Gal-CD4-103] | < 40% | – | – | – | 10 ng/ml and ~5 nM | 0.439 fraction (0.3 equals 30%) | < 0.3 fraction (0.3 equals 30%) | < 0.3 fraction (0.3 equals 30%) | 0.461 fraction (0.3 equals 30%) | < 0.3 fraction (0.3 equals 30%) | < 0.3 fraction (0.3 equals 30%) | 0.454 fraction (0.3 equals 30%) | < 0.3 fraction (0.3 equals 30%) | < 0.3 fraction (0.3 equals 30%) | > 50% | 90%
10 | DKILGNQGSFLTKGPS (not fully specified (residue 1), also called GP3; glycopeptide 3) [Gal-CD4-102] | < 40% | – | – | – | ~5 nM and 10 ng/ml | 0.5 fraction (0.3 equals 30%) | < 0.3 fraction (0.3 equals 30%) | < 0.3 fraction (0.3 equals 30%) | 0.42 fraction (0.3 equals 30%) | < 0.3 fraction (0.3 equals 30%) | – | 0.6 fraction (0.3 equals 30%) | < 0.3 fraction (0.3 equals 30%) | – | > 50% | 90%
11 | QFHWKNSNQIKILGN [CD4 peptide alone, Seq. Id. No. 4 (non-glycosylated)] | < 40% | < 0.3 fraction (0.3 equals 30%) | < 0.3 fraction (0.3 equals 30%) | < 0.3 fraction (0.3 equals 30%) | – | – | – | – | – | – | – | – | – | – | – | –
12 | NSNQIKILGNQGSFL [CD4 peptide alone, Seq. Id. No. 5 (non-glycosylated)] | < 40% | < 0.3 fraction (0.3 equals 30%) | < 0.3 fraction (0.3 equals 30%) | < 0.3 fraction (0.3 equals 30%) | – | – | – | – | – | – | – | – | – | – | – | –
